B1: E3 ubiquitin-protein ligase UBR1 (Saccharomyces cerevisiae), P19812 (parent)
chain: MSVADDDLGSLQGHIRRTLRSIHNLPYFRYTRGPTERADMSRALKEFIYRYLYFVISNSGENLPTLFNAHPKQKLSNPELTVFPDSLEDAVDIDKITSQQTIPFYKIDESRIGDVHKHTGRNCGRKFKIGEPLYRCHECGCDDTCVLCIHCFNPKDHVNHHVCTDICTEFTSGICDCGDEEAWNSPLHCKAEEQENDISEDPATNADIKEEDVWNDSVNIALVELVLAEVFDYFIDVFNQNIEPLPTIQKDITIKLREMTQQGKMYERAQFLNDLKYENDYMFDGTTTAKTSPSNSPEASPSLAKIDPENYTVIIYNDEYHNYSQATTALRQGVPDNVHIDLLTSRIDGEGRAMLKCSQDLSSVLGGFFAVQTNGLSATLTSWSEYLHQETCKYIILWITHCLNIPNSSFQTTFRNMMGKTLCSEYLNATECRDMTPVVEKYFSNKFDKNDPYRYIDLSILADGNQIPLGHHKILPESSTHSLSPLINDVETPTSRTYSNTRLQHILYFDNRYWKRLRKDIQNVIIPTLASSNLYKPIFCQQVVEIFNHITRSVAYMDREPQLTAIRECVVQLFTCPTNAKNIFENQSFLDIVWSIIDIFKEFCKVEGGVLIWQRVQKSNLTKSYSISFKQGLYTVETLLSKVHDPNIPLRPKEIISLLTLCKLFNGAWKIKRKEGEHVLHEDQNFISYLEYTTSIYSIIQTAEKVSEKSKDSIDSKLFLNAIRIISSFLGNRSLTYKLIYDSHEVIKFSVSHERVAFMNPLQTMLSFLIEKVSLKDAYEALEDCSDFLKISDFSLRSVVLCSQIDVGFWVRNGMSVLHQASYYKNNPELGSYSRDIHLNQLAILWERDDIPRIIYNILDRWELLDWFTGEVDYQHTVYEDKISFIIQQFIAFIYQILTERQYFKTFSSLKDRRMDQIKNSIIYNLYMKPLSYSKLLRSVPDYLTEDTTEFDEALEEVSVFVEPKGLADNGVFKLKASLYAKVDPLKLLNLENEFESSATIIKSHLAKDKDEIAKVVLIPQVSIKQLDKDALNLGAFTRNTVFAKVVYKLLQVCLDMEDSTFLNELLHLVHGIFRDDELINGKDSIPEAYLSKPICNLLLSIANAKSDVFSESIVRKADYLLEKMIMKKPNELFESLIASFGNQYVNDYKDKKLRQGVNLQETEKERKRRLAKKHQARLLAKFNNQQTKFMKEHESEFDEQDNDVDMVGEKVYESEDFTCALCQDSSSTDFFVIPAYHDHSPIFRPGNIFNPNEFMPMWDGFYNDDEKQAYIDDDVLEALKENGSCGSRKVFVSCNHHIHHNCFKRYVQKKRFSSNAFICPLCQTFSNCTLPLCQTSKANTGLSLDMFLESELSLDTLSRLFKPFTEENYRTINSIFSLMISQCQGFDKAVRKRANFSHKDVSLILSVHWANTISMLEIASRLEKPYSISFFRSREQKYKTLKNILVCIMLFTFVIGKPSMEFEPYPQQPDTVWNQNQLFQYIVRSALFSPVSLRQTVTEALTTFSRQFLRDFLQGLSDAEQVTKLYAKASKIGDVLKVSEQMLFALRTISDVRMEGLDSESIIYDLAYTFLLKSLLPTIRRCLVFIKVLHELVKDSENETLVINGHEVEEELEFEDTAEFVNKALKMITEKESLVDLLTTQESIVSHPYLENIPYEYCGIIKLIDLSKYLNTYVTQSKEIKLREERSQHMKNADNRLDFKICLTCGVKVHLRADRHEMTKHLNKNCFKPFGAFLMPNSSEVCLHLTQPPSNIFISAPYLNSHGEVGRNAMRRGDLTTLNLKRYEHLNRLWINNEIPGYISRVMGDEFRVTILSNGFLFAFNREPRPRRIPPTDEDDEDMEEGEDGFFTEGNDEMDVDDETGQAANLFGVGAEGIAGGGVRDFFQFFENFRNTLQPQGNGDDDAPQNPPPILQFLGPQFDGATIIRNTNPRNLDEDDSDDNDDSDEREIW
partner: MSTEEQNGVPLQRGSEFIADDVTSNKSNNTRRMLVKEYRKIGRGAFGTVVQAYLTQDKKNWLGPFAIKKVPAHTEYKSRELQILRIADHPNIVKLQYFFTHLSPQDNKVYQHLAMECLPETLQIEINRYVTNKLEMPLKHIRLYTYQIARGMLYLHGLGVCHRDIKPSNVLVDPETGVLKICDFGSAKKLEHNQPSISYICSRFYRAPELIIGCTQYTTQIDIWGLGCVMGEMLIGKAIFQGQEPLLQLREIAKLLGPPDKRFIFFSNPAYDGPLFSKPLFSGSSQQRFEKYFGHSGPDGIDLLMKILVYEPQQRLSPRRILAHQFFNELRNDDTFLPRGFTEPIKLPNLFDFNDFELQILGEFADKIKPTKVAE
B2: Protein kinase MCK1 (Saccharomyces cerevisiae), P21965 (parent)
chain: B1 partner

One experiment covers variants of B1. Conditions: with mck1_yeast MCK1, P21965.
For Y277F, the “effect of a mutation on the interaction” value is recorded as “disrupting interaction”.

In the next experiment the parent is B2. Conditions: with ubr1_yeast UBR1, P19812.
Take MSTEEQNGVPLQRGSEFIADDVTSNKSNNTRRMLVKEYRKIGRGAFGTVVQAYLTQDKKNWLGPFAIKKVPAHTEYKSRELQILRIADHPNIVKLQYFFTHLSPQDNKVYQHLAMECLPETLQIEINRYVTNKLEMPLKHIRLYTYQIARGMLYLHGLGVCHRAIKPSNVLVDPETGVLKICDFGSAKKLEHNQPSISYICSRFYRAPELIIGCTQYTTQIDIWGLGCVMGEMLIGKAIFQGQEPLLQLREIAKLLGPPDKRFIFFSNPAYDGPLFSKPLFSGSSQQRFEKYFGHSGPDGIDLLMKILVYEPQQRLSPRRILAHQFFNELRNDDTFLPRGFTEPIKLPNLFDFNDFELQILGEFADKIKPTKVAE [D164A]: the “effect of a mutation on the interaction” value was “disrupting interaction”.

These data come from IntAct's records for PubMed 19033468.
